Results taken from PMC3564486 (Developmental cell, 2011).

T1: LRP6_(P3E3P4E4), wild type (human, UniProt O75581 629-1244)
T1 sequence (looked up): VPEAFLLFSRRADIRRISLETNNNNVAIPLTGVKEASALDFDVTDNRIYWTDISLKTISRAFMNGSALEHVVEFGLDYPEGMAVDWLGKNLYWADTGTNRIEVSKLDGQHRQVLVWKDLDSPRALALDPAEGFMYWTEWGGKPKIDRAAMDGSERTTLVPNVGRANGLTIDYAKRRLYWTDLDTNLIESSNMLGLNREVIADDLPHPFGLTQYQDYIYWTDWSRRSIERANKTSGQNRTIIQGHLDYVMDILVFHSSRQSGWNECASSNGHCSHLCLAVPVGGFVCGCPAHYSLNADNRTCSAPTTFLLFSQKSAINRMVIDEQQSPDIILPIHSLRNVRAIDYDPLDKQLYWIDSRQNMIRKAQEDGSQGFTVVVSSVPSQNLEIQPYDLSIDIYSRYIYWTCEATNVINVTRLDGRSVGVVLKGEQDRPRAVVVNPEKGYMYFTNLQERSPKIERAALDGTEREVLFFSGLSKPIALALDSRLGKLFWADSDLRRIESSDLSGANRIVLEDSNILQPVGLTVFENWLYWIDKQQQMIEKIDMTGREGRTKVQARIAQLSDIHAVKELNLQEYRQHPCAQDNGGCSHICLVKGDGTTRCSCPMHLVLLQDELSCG

T2: LRP6_(P3E3P4E4) N813A (human, UniProt O75581 629-1244, N813A)
T2 sequence (looked up): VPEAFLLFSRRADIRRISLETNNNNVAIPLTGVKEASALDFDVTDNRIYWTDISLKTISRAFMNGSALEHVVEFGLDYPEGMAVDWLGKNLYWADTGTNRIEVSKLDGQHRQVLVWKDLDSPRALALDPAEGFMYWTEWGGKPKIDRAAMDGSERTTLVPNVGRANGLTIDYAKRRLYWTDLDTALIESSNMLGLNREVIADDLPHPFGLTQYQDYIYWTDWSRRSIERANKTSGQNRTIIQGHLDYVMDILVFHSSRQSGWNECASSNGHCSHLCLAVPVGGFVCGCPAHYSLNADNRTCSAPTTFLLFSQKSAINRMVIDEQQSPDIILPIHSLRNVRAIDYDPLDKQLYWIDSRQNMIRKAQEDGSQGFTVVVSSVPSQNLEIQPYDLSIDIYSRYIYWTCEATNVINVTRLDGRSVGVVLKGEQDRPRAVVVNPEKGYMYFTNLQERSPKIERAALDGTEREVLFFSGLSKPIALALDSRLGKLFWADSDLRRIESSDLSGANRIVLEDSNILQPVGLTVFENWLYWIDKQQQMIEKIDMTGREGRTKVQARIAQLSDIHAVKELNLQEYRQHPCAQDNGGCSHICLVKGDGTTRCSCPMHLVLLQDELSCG

T3: LRP6_(P3E3P4E4) Y706A (human, UniProt O75581 629-1244, Y706A)
T3 sequence (looked up): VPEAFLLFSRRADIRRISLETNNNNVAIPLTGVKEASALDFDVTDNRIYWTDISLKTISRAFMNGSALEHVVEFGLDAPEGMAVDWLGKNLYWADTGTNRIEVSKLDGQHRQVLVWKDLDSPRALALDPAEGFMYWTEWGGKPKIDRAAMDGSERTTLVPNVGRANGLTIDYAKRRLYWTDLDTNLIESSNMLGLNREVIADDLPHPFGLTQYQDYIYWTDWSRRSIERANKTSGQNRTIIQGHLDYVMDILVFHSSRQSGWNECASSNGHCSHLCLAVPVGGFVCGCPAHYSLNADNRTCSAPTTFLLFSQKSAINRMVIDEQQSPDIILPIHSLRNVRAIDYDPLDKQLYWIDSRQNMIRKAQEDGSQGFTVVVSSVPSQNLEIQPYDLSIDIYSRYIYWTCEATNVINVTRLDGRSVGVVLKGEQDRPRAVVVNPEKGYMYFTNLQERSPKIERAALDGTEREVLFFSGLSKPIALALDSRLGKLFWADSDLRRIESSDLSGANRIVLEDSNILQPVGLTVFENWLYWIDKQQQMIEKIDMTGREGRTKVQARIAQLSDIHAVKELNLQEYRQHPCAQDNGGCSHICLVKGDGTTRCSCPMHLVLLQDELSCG

T4: LRP6_(P3E3P4E4) E708A (human, UniProt O75581 629-1244, E708A)
T4 sequence (looked up): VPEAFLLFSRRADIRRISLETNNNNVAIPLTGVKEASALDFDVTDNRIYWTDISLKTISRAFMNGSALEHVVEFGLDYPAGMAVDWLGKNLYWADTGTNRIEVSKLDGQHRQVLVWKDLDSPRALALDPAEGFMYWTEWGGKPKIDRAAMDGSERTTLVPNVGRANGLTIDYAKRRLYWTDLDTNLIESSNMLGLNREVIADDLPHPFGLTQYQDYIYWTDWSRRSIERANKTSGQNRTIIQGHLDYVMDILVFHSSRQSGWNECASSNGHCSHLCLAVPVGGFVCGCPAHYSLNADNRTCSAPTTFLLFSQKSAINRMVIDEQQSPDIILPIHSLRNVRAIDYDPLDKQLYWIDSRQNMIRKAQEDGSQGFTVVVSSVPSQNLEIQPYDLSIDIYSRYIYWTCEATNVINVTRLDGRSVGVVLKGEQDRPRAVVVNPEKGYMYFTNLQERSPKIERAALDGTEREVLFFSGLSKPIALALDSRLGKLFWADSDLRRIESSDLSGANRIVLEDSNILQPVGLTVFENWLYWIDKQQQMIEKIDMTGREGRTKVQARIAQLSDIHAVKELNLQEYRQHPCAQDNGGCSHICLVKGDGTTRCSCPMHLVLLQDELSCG

T5: LRP6_(P3E3P4E4) W767A (human, UniProt O75581 629-1244, W767A)
T5 sequence (looked up): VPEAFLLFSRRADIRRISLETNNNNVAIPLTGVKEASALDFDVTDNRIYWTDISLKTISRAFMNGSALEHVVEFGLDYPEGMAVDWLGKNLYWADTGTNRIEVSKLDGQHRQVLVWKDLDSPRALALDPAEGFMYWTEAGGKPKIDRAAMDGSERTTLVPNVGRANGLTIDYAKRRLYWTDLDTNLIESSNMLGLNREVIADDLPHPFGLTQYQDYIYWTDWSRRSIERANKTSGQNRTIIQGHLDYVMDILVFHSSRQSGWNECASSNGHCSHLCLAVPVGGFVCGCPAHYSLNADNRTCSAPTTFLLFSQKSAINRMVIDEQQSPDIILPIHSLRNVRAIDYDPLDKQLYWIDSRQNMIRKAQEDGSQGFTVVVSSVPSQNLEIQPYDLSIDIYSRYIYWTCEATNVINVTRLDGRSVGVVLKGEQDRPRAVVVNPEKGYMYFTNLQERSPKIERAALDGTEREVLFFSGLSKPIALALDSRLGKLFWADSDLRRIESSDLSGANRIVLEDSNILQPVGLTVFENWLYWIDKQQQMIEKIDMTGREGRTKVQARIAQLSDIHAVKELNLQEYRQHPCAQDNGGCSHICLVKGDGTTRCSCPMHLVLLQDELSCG

T6: LRP6 ectodomain (LRP6ECD) (human, UniProt O75581 20-1361)
T6 sequence (looked up): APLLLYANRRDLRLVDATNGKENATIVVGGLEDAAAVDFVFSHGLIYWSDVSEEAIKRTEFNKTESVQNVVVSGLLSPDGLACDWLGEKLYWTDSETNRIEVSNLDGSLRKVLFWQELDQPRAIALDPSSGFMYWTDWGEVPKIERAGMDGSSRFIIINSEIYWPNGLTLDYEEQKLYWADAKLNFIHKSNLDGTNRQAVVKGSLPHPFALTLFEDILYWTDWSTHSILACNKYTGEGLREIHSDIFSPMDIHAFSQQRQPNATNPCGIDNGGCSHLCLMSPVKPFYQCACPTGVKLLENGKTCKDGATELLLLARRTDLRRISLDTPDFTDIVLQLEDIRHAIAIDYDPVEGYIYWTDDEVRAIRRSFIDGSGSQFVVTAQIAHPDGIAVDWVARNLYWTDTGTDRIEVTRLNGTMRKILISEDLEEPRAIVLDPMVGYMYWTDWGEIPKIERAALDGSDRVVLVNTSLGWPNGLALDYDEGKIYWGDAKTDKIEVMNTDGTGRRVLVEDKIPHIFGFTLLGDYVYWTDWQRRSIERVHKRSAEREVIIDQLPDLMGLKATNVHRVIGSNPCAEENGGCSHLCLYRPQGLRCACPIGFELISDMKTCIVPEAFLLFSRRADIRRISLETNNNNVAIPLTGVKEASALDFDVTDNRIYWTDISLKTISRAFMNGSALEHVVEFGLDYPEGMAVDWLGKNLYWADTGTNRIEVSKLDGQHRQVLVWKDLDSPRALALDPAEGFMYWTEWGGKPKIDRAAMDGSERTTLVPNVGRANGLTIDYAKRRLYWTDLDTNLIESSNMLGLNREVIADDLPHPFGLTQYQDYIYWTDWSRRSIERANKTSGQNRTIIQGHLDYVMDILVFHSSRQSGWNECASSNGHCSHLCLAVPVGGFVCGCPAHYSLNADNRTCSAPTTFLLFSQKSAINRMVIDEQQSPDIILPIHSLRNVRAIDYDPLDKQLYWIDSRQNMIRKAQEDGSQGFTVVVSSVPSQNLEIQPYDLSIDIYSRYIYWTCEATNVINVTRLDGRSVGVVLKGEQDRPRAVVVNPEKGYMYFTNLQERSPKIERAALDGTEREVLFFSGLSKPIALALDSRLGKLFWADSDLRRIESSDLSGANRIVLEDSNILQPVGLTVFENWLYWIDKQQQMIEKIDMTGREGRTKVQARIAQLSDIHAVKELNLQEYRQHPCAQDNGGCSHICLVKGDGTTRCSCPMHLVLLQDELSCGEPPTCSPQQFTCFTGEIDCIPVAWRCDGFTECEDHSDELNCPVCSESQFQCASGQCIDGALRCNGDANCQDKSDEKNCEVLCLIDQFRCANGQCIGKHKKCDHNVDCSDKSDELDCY


Assays:
[1] = target: T1, LRP6_(P3E3P4E4), wild type; test: SPR
LRP6_(P3E3P4E4) N813A = target: T2, LRP6_(P3E3P4E4) N813A; test: SPR
LRP6_(P3E3P4E4) Y706A = target: T3, LRP6_(P3E3P4E4) Y706A; test: SPR
LRP6_(P3E3P4E4) E708A = target: T4, LRP6_(P3E3P4E4) E708A; test: SPR
LRP6_(P3E3P4E4) W767A = target: T5, LRP6_(P3E3P4E4) W767A; test: SPR
[2] = target: T6, LRP6 ectodomain (LRP6ECD); test: SEC-MALS

| Kd [1] | binding result (LRP6_(P3E3P4E4) N813A) | binding result (LRP6_(P3E3P4E4) Y706A) | binding result (LRP6_(P3E3P4E4) E708A) | binding result (LRP6_(P3E3P4E4) W767A) | stoichiometry N [2] | Binder |
| --- | --- | --- | --- | --- | --- | --- |
| 58 nM | binds | binds | binds | binds | – | Dickkopf 1 (Dkk1) (ligand, human, UniProt O94907 32-266, looked up) TLNSVLNSNAIKNLPPPLGGAAGHPGSAVSAAPGILYPGGNKYQTIDNYQPYPCAEDEECGTDEYCASPTRGGDAGVQICLACRKRRKRCMRHAMCCPGNYCKNGICVSSDQNHFRGEIEETITESFGNDHSTLDGYSRRTTLSSKMYHTKGQEGSVCLRSSDCASGLCCARHFWSKICKPVLKEGQVCTKHRRKGSHGLEIFQRCYCGEGLSCRIQKDHHQASNSSRLHTCQRH |
| – | – | – | – | – | 1 | human Mesd with an internal Flag tag (co-expressed with LRP6ECD) (natural protein, UniProt Q14696-1 34-234, looked up) AEGSPGTPDESTPPPRKKKKDIRDYNDADMARLLEQWEKDDDIEEGDLPEHKRPSAPVDFSKIDPSKPESILKMTKKGKTLMMFVTVSGSPTEKETEEITSLWQGSLFNANYDVQRFIVGSDRAIFMLRDGSYAWEIKDFLVGQDRCADVTLEGQVYPGKGGGSKEKNKTKQDKGKKKKEGDLKSRSSKEENRAGNKREDL |
